Data: patent US20260028403A1 (Zymeworks, published 2026)

How the values were obtained:
[1] = molecular target: T1, Recombinant MSLN his tag protein (R&D systems) (UniProt Q13421 296-580, limits assumed); assay: SPR Biacore T200, MSLN-his on CM5, construct flowed, 1:1 model
T1 construct: his tag; also called mesothelin

[2] = molecular target: T2, Recombinant human CD3 epsilon/delta heterodimer, his tag protein (Acro Biosystems) (human, UniProt P07766 23-126; P04234 22-105); assay: SPR Biacore T200, CD3 e/d-his on CM5, construct injected, 1:1 model;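 further: measured at 25 °C in HEPES-buffered saline with EDTA and Tween 20 at pH 7.4, values are means of three independent runs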
T2 construct: bought

[3] = molecular target: T3, Recombinant human/cynomolgus/rhesus macaque CD28 mouse IgG2a Fc fusion protein (Acro Biosystems) (human/cynomolgus/rhesus macaque, UniProt P10747 19-152); assay: SPR Biacore T200, CD28-mIgG2a Fc on CM5, construct injected, 1:1 model;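 further: fc fusion captured by amine coupling, run at 25 °C in HEPES buffer pH 7.4, association 140-500 s then dissociation 600-1200 s, values averaged over three independent runs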
T3 construct: bought; also called huCD28

[4] = molecular target: T4, Human CLDN18.2 (human); assay: flow cytometry, SNU 601 cells
T4 construct: on transfected HEK293-6E cells or native on SNU 601 cells

Binder | Kd [1] | koff [1] | kon [1] | Kd [2] | koff [2] | kon [2] | Kd [3] | koff [3] | kon [3] | Bmax [4] | EC50 [4]
v34916 (trispecific antibody, human IgG1, lambda, L234A L235A, CD28 scFv on C-terminus of the CD3 Fab light chain; Het Fc, FcKO; also called CD3xCD28xMSLN trispecific) heavy 1: not shown heavy 2: EIVLTQSPATLSLSPGERVTMSCSASSSVSYMHWYQQKPGQAPRLWIYDTSKLASGVPARFSGSGSGTDYTLTISSVEPEDNAVYYCQQWSGHPLTFGQGTKVEIKGGGGSGGGGSGGGGSGGGGSQVQLVQSGAEVKKPGASVKISCKASGYSFTGYTMNWVRQAPGQGLEWIGLITPYSGASSYAQKFQGRATLTVDKSTSTAYMELSSLRSEDTAVYYCARGGYDGRGFDYWGQGTNVTVSSAAEPKSSDKTHTCPPCPAPEAAGGPSVFLFPPKPKDTLMISRTPEVTCVVVSVSHEDPEVKFNWYVDGVEVHNAKTKPREEQYNSTYRVVSVLTVLHQDWLNGKEYKCKVSNKALPAPIEKTISKAKGQPREPQVYVLPPSRDELTKNQVSLLCLVKGFYPSDIAVEWESNGQPENNYLTWPPVLDSDGSFFLYSKLTVDKSRWQQGNVFSCSVMHEALHNHYTQKSLSLSPG light: NFMLTQPHSVSESPGKTVTISCKRNTGNIGSNYVNWYQQHEGSSPTTIIYRNDKRPDGVSDRFSGSIDRSSKSASLTISNLKTEDEADYFCQSYSSGFIFGGGTKLTVLGQPKAAPSVTLFPPSSEELQANKATLVCLISDFYPGAVTVAWKADSSPVKAGVETTTPSKQSNNKYAASSYLSLTPEQWKSHRSYSCQVTHEGSTVEKTVAPTECSGGGGSGDIQMTQSPSSLSASVGDRVTITCRASESVEYYVTSLMQWYQQKPGKAPKLLIYAASNVDSGVPSRFSGSGSGTDFTLTISSLQPEDIATYYCQQSRKVPFTFGGGTKVEIKGGGGSGGGGSGGGGSGGGGSQVQLQESGPGLVKPSETLSLTCAVSGFSLTSYGVHWIRQPPGKGLEWLGVIWPGGGTNFNSALMSRLTISEDTSKNQVSLKLSSVTAADTAVYYCARDRAYGNYLYAMDYWGQGTLVTVSS | 4.78 nM | 0.00181 s⁻¹ | 388000 M⁻¹ s⁻¹ | 37.2 nM | 0.0104 s⁻¹ | 291000 M⁻¹ s⁻¹ | 56.5 nM | 0.000546 s⁻¹ | 13000 M⁻¹ s⁻¹ |  | 
v34918 (trispecific antibody, human IgG1, kappa, L234A L235A, Het Fc, FcKO; also called CD28xCD3xMSLN trispecific) heavy 1: QVQLQESGPGLVKPSETLSLTCAVSGFSLTSYGVHWIRQPPGKGLEWLGVIWPGGGTNFNSALMSRLTISEDTSKNQVSLKLSSVTAADTAVYYCARDRAYGNYLYAMDYWGQGTLVTVSSASTKGPSVFPLAPSSKSTSGGTAALGCLVKDYFPEPVTVSWNSGALTSGVHTFPAVLQSSGLYSLSSVVTVPSSSLGTQTYICNVNHKPSNTKVDKKVEPKSCDKTHTCPPCPAPEAAGGPSVFLFPPKPKDTLMISRTPEVTCVVVSVSHEDPEVKFNWYVDGVEVHNAKTKPREEQYNSTYRVVSVLTVLHQDWLNGKEYKCKVSNKALPAPIEKTISKAKGQPREPQVYVYPPSRDELTKNQVSLTCLVKGFYPSDIAVEWESNGQPENNYKTTPPVLDSDGSFALVSKLTVDKSRWQQGNVFSCSVMHEALHNHYTQKSLSLSPGGGGGSGNFMLTQPHSVSESPGKTVTISCKRNTGNIGSNYVNWYQQHEGSSPTTIIYRNDKRPDGVSDRFSGSIDRSSKSASLTISNLKTEDEADYFCQSYSSGFIFGGGTKLTVLGGGGSGGGGSGGGGSGGGGSEVQLVESGGGLVQPGGSLRLSCAASGVTFNYYGMSWIRQAPGKGLEWVASITSSGGRIYYPDSVKGRFTISRENTQKTLYLQMNSLRAEDTAVYYCTLDGRDGWVAYWGQGTLVTVSS heavy 2: EIVLTQSPATLSLSPGERVTMSCSASSSVSYMHWYQQKPGQAPRLWIYDTSKLASGVPARFSGSGSGTDYTLTISSVEPEDNAVYYCQQWSGHPLTFGQGTKVEIKGGGGSGGGGSGGGGSGGGGSQVQLVQSGAEVKKPGASVKISCKASGYSFTGYTMNWVRQAPGQGLEWIGLITPYSGASSYAQKFQGRATLTVDKSTSTAYMELSSLRSEDTAVYYCARGGYDGRGFDYWGQGTNVTVSSAAEPKSSDKTHTCPPCPAPEAAGGPSVFLFPPKPKDTLMISRTPEVTCVVVSVSHEDPEVKFNWYVDGVEVHNAKTKPREEQYNSTYRVVSVLTVLHQDWLNGKEYKCKVSNKALPAPIEKTISKAKGQPREPQVYVLPPSRDELTKNQVSLLCLVKGFYPSDIAVEWESNGQPENNYLTWPPVLDSDGSFFLYSKLTVDKSRWQQGNVFSCSVMHEALHNHYTQKSLSLSPG light: DIQMTQSPSSLSASVGDRVTITCRASESVEYYVTSLMQWYQQKPGKAPKLLIYAASNVDSGVPSRFSGSGSGTDFTLTISSLQPEDIATYYCQQSRKVPFTFGGGTKVEIKRTVAAPSVFIFPPSDEQLKSGTASVVCLLNNFYPREAKVQWKVDNALQSGNSQESVTEQDSKDSTYSLSSTLTLSKADYEKHKVYACEVTHQGLSSPVTKSFNRGEC | 7.08 nM | 0.00187 s⁻¹ | 294000 M⁻¹ s⁻¹ | 118 nM | 0.0135 s⁻¹ | 118000 M⁻¹ s⁻¹ | 50 nM | 0.00259 s⁻¹ | 52700 M⁻¹ s⁻¹ |  | 
v34917 (trispecific antibody, human IgG1, lambda, L234A L235A, Het Fc, FcKO; also called CD28xCD3xMSLN trispecific) heavy 1: EVQLVESGGGLVQPGGSLRLSCAASGVTFNYYGMSWIRQAPGKGLEWVASITSSGGRIYYPDSVKGRFTISRENTQKTLYLQMNSLRAEDTAVYYCTLDGRDGWVAYWGQGTLVTVSSASTKGPSVFPLAPSSKSTSGGTAALGCLVKDYFPEPVTVSWNSGALTSGVHTFPAVLQSSGLYSLSSVVTVPSSSLGTQTYICNVNHKPSNTKVDKKVEPKSCDKTHTCPPCPAPEAAGGPSVFLFPPKPKDTLMISRTPEVTCVVVSVSHEDPEVKFNWYVDGVEVHNAKTKPREEQYNSTYRVVSVLTVLHQDWLNGKEYKCKVSNKALPAPIEKTISKAKGQPREPQVYVYPPSRDELTKNQVSLTCLVKGFYPSDIAVEWESNGQPENNYKTTPPVLDSDGSFALVSKLTVDKSRWQQGNVFSCSVMHEALHNHYTQKSLSLSPGGGGGSGDIQMTQSPSSLSASVGDRVTITCRASESVEYYVTSLMQWYQQKPGKAPKLLIYAASNVDSGVPSRFSGSGSGTDFTLTISSLQPEDIATYYCQQSRKVPFTFGGGTKVEIKGGGGSGGGGSGGGGSGGGGSQVQLQESGPGLVKPSETLSLTCAVSGFSLTSYGVHWIRQPPGKGLEWLGVIWPGGGTNFNSALMSRLTISEDTSKNQVSLKLSSVTAADTAVYYCARDRAYGNYLYAMDYWGQGTLVTVSS heavy 2: EIVLTQSPATLSLSPGERVTMSCSASSSVSYMHWYQQKPGQAPRLWIYDTSKLASGVPARFSGSGSGTDYTLTISSVEPEDNAVYYCQQWSGHPLTFGQGTKVEIKGGGGSGGGGSGGGGSGGGGSQVQLVQSGAEVKKPGASVKISCKASGYSFTGYTMNWVRQAPGQGLEWIGLITPYSGASSYAQKFQGRATLTVDKSTSTAYMELSSLRSEDTAVYYCARGGYDGRGFDYWGQGTNVTVSSAAEPKSSDKTHTCPPCPAPEAAGGPSVFLFPPKPKDTLMISRTPEVTCVVVSVSHEDPEVKFNWYVDGVEVHNAKTKPREEQYNSTYRVVSVLTVLHQDWLNGKEYKCKVSNKALPAPIEKTISKAKGQPREPQVYVLPPSRDELTKNQVSLLCLVKGFYPSDIAVEWESNGQPENNYLTWPPVLDSDGSFFLYSKLTVDKSRWQQGNVFSCSVMHEALHNHYTQKSLSLSPG light: NFMLTQPHSVSESPGKTVTISCKRNTGNIGSNYVNWYQQHEGSSPTTIIYRNDKRPDGVSDRFSGSIDRSSKSASLTISNLKTEDEADYFCQSYSSGFIFGGGTKLTVLGQPKAAPSVTLFPPSSEELQANKATLVCLISDFYPGAVTVAWKADSSPVKAGVETTTPSKQSNNKYAASSYLSLTPEQWKSHRSYSCQVTHEGSTVEKTVAPTECS | 4.96 nM | 0.00199 s⁻¹ | 411000 M⁻¹ s⁻¹ | 40.8 nM | 0.0177 s⁻¹ | 444000 M⁻¹ s⁻¹ | 373 nM | 0.00209 s⁻¹ | 8240 M⁻¹ s⁻¹ |  | 
v37633 (trispecific antibody, human IgG1, lambda, L234A L235A, Het Fc, FcKO; also called CD28xCD3xCldn18.2 trispecific) heavy 1: not shown heavy 2: QVQLVESGGGLVQPGGSLRLSCSVSGIDLSSNPMIWVRQAPGKGLQYIGIIDTDGSTYYADWAKGRFTISKDSTTVYLQINSPRAEDTAVYYCARRLHGSSNGYYDDLWGQGTLVTVSSGGGGSGGGGSGGGGSGGGGSDGQMTQSPSSVSASVGDRVTITCQASQSIYSYLSWYQQKPGQRPKLLIYKASTLASGVPSRFSGSGSGTDFTLTISSVQPEDFATYYCQQGYTVTNVDKNTFGGGTKVEIKAAEPKSSDKTHTCPPCPAPEAAGGPSVFLFPPKPKDTLMISRTPEVTCVVVSVSHEDPEVKFNWYVDGVEVHNAKTKPREEQYNSTYRVVSVLTVLHQDWLNGKEYKCKVSNKALPAPIEKTISKAKGQPREPQVYVLPPSRDELTKNQVSLLCLVKGFYPSDIAVEWESNGQPENNYLTWPPVLDSDGSFFLYSKLTVDKSRWQQGNVFSCSVMHEALHNHYTQKSLSLSPG light: NFMLTQPHSVSESPGKTVTISCKRNTGNIGSNYVNWYQQHEGSSPTTIIYRNDKRPDGVSDRFSGSIDRSSKSASLTISNLKTEDEADYFCQSYSSGFIFGGGTKLTVLGQPKAAPSVTLFPPSSEELQANKATLVCLISDFYPGAVTVAWKADSSPVKAGVETTTPSKQSNNKYAASSYLSLTPEQWKSHRSYSCQVTHEGSTVEKTVAPTECS |  |  |  | 135 nM | 0.0176 s⁻¹ | 130000 M⁻¹ s⁻¹ | 55.1 nM | 0.0062 s⁻¹ | 113000 M⁻¹ s⁻¹ | 8570 MFI | 40.8 nM
v37663 (bispecific antibody, human IgG1, lambda, L234A L235A, 13B08 VH-VL scFv); also called anti-(CLDN18.2xCD3) bispecific control) heavy 1: not shown heavy 2: QVQLVESGGGLVQPGGSLRLSCSVSGIDLSSNPMIWVRQAPGKGLQYIGIIDTDGSTYYADWAKGRFTISKDSTTVYLQINSPRAEDTAVYYCARRLHGSSNGYYDDLWGQGTLVTVSSGGGGSGGGGSGGGGSGGGGSDGQMTQSPSSVSASVGDRVTITCQASQSIYSYLSWYQQKPGQRPKLLIYKASTLASGVPSRFSGSGSGTDFTLTISSVQPEDFATYYCQQGYTVTNVDKNTFGGGTKVEIKAAEPKSSDKTHTCPPCPAPEAAGGPSVFLFPPKPKDTLMISRTPEVTCVVVSVSHEDPEVKFNWYVDGVEVHNAKTKPREEQYNSTYRVVSVLTVLHQDWLNGKEYKCKVSNKALPAPIEKTISKAKGQPREPQVYVLPPSRDELTKNQVSLLCLVKGFYPSDIAVEWESNGQPENNYLTWPPVLDSDGSFFLYSKLTVDKSRWQQGNVFSCSVMHEALHNHYTQKSLSLSPG light: NFMLTQPHSVSESPGKTVTISCKRNTGNIGSNYVNWYQQHEGSSPTTIIYRNDKRPDGVSDRFSGSIDRSSKSASLTISNLKTEDEADYFCQSYSSGFIFGGGTKLTVLGQPKAAPSVTLFPPSSEELQANKATLVCLISDFYPGAVTVAWKADSSPVKAGVETTTPSKQSNNKYAASSYLSLTPEQWKSHRSYSCQVTHEGSTVEKTVAPTECS |  |  |  | 76.4 nM | 0.0157 s⁻¹ | 206000 M⁻¹ s⁻¹ |  |  |  | 9200 MFI | 31.3 nM
